Biological target: FKBP-caspase-8 (Site-1 mutant) (human) (UniProt Q14790)

FRB-FLIPL (wt) (from UniProt O15519 188-480)
activity after heterodimerization (with AP21967), relative to Mature caspase-8: 20%
